The results in this text go back to US7105641.

Where only a bound is given, the exact number is not on record here.

The target of the first test is MIP-1α/RANTES receptor (Homo sapiens (Human)) (UniProt P32246). Put plainly: cell-based or functional assay.
Chain of MIP-1α/RANTES receptor (Homo sapiens (Human)) (P32246 whole entry): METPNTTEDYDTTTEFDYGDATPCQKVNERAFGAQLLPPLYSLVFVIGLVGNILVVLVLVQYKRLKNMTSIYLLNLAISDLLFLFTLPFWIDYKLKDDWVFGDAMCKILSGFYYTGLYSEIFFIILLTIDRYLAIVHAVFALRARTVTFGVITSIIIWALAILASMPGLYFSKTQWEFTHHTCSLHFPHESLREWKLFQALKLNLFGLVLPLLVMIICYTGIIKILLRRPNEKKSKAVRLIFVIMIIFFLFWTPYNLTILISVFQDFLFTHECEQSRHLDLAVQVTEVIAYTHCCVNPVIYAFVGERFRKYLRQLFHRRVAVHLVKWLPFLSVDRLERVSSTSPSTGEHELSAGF
Take “Gro-α (from UniProt P09341 35-107) (ligand)”: the IC50(nM), Inhibition of Adenylyl Cyclase is above 1000 nM.

A further test deals with MCP-1RB (monocyte chemoattractant protein-1 receptor B) (human) (UniProt P41597). Put plainly: cell-based or functional assay.
Chain of MCP-1RB (monocyte chemoattractant protein-1 receptor B) (human) (P41597 other isoform, or with tags, fused parts or gaps): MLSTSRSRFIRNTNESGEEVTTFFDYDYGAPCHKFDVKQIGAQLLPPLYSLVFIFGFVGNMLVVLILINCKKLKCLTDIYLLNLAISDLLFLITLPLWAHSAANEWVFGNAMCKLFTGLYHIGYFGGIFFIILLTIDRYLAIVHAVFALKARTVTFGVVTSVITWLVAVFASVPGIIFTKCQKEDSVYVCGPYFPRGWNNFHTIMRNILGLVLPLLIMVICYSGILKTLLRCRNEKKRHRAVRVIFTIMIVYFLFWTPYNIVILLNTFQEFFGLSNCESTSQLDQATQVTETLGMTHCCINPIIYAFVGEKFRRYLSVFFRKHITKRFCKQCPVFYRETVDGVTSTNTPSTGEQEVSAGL
The substance “RANTES (from UniProt P13501 24-91) (ligand)” returned an IC50(nM), Inhibition of Adenylyl Cyclase above 1000 nM.

Regarding “MIP-1α (from UniProt P10147 27-92) (ligand)”, the IC50(nM), Inhibition of Adenylyl Cyclase was above 1000 nM.

In turn, “Gro-α (from UniProt P09341 35-107) (ligand)” returned an IC50(nM), Inhibition of Adenylyl Cyclase above 1000 nM.

“IL-8 (interleukin-8) (from UniProt P10145 28-99) (ligand)” returned an IC50(nM), Inhibition of Adenylyl Cyclase above 1000 nM.

As to “MIP-1β (from UniProt P13236 24-92) (ligand)”, the IC50(nM), Inhibition of Adenylyl Cyclase is above 1000 nM.
